Laboratory results as given in PMC2858264.

B1: rS-HPCDH1 (Xanthobacter versatilis) (protein)
chain: MLDAEVIAITGGAAGIGLAVAHAAIRAGARVALIDRDGACAQRAAAEFGAAAWGVGADVTDEAAITAAMAGAQRALGPLTGLVNNAGIAGFGSVHATEVETWSRIMAVNVTGTFLASKAALFGMLERGRGAIVNFGSVAGLVGIPTMAAYCAAKGAVVNLTRQMAADYSGRGIRVNVVCPGTVAGTDMGRQLLGTDCDPELEARRLAKYPMGRFGTPEDIAEAAVFLLSTKAAFVTGSVLAVDGGMTAI
B2: rR-HPCDH1 (Xanthobacter versatilis) (protein)
chain: SRVAIVTGASSGNGLAIATRFLARGDRVAALDLSAETLEETARTHWHAYADKVLRVRADVADEGDVNAAIAATMEQFGAIDVLVNNAGITGNSEAGVLHTTPVEQFDKVMAVNVRGIFLGCRAVLPHMLLQGAGVIVNIASVASLVAFPGRSAYTTSKGAVLQLTKSVAVDYAGSGIRCNAVCPGMIETPMTQWRLDQPELRDQVLARIPQKEIGTAAQVADAVMFLAGEDATYVNGAALVMDGAYTAI

Columns and labels:
Experiment in all cases: purified protein
purified protein [1] = substrate: CC(=O)CSCCS(=O)(=O)O; conditions: reduction, 0.17 mM NADH, pH 7.5, 30 °C
purified protein [2] = substrate: C[C@@H](O)CSCCS(=O)(=O)O; conditions: oxidation, 10 mM NAD+, pH 7.5, 30 °C
purified protein [3] = substrate: C[C@H](O)CSCCS(=O)(=O)O; conditions: oxidation, 10 mM NAD+, pH 7.5, 30 °C
purified protein [4] = substrate: CC(=O)CSCCS(=O)(=O)O; format: biochemical, Xanthobacter versatilis; conditions: reduction, 0.17 mM NADH, pH 7.5, 30 °C
purified protein [5] = substrate: C[C@@H](O)CSCCS(=O)(=O)O; format: biochemical, Xanthobacter versatilis; conditions: oxidation, 10 mM NAD+, pH 7.5, 30 °C
purified protein [6] = substrate: C[C@H](O)CSCCS(=O)(=O)O; format: biochemical, Xanthobacter versatilis; conditions: oxidation, 10 mM NAD+, pH 7.5, 30 °C
purified protein [7] = substrate: O=S(=O)(O)CCSCCO; format: biochemical, Xanthobacter versatilis; conditions: oxidation, 5 mM NAD+, pH 7.5, 30 °C

Protein | Km (purified protein [1]) [µM] | kcat (purified protein [1]) [s⁻¹] | kcat/Km (purified protein [1]) [M⁻¹ s⁻¹] | Km (purified protein [2]) [µM] | kcat (purified protein [2]) [s⁻¹] | kcat/Km (purified protein [2]) [M⁻¹ s⁻¹] | Km (purified protein [3]) [µM] | kcat (purified protein [3]) [s⁻¹] | kcat/Km (purified protein [3]) [M⁻¹ s⁻¹] | Km (purified protein [4]) [µM] | Km (purified protein [5]) [µM] | kcat (purified protein [5]) [s⁻¹] | kcat/Km (purified protein [5]) [M⁻¹ s⁻¹] | Km (purified protein [6]) [µM] | kcat (purified protein [6]) [s⁻¹] | kcat/Km (purified protein [6]) [M⁻¹ s⁻¹] | Km (purified protein [7]) [µM]
B1 | 240 ± 10 | 20 | 83000 | 5200 ± 300 | 2.4 | 460 | 220 ± 20 | 28 | 130000 |  |  |  |  |  |  |  | 
B2 |  |  |  |  |  |  |  |  |  | 68 ± 10 | 96 ± 7 | 48 ± 1 | 500000 | 220 ± 70 | 0.12 ± 0.01 | 530 | 960 ± 100
